Measurements: publication PMC12561191

Target: BAX, the ligand protein coupled on the SPR chip, Q07812
Experiment: SPR
Details: natural protein; chains chain; remark: other sources report otherwise

BAX, the ligand protein coupled on the SPR chip, Q07812, sequence (Q07812 whole entry): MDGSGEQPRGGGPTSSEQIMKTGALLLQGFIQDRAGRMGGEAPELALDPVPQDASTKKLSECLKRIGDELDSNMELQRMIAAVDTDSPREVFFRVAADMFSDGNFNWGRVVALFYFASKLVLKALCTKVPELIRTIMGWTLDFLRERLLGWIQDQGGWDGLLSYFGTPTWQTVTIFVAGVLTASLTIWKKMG

- Kd: 11.3 µM
B1: recombinant human MANF (rhMANF) protein, P55145 25-182 (protein)
chain: LRPGDCEVCISYLGRFYQDLKDRDVTFSPATIENELIKFCREARGKENRLCYYIGATDDAATKIINEVSKPLAHHIPVEKICEKLKKKDSQICELKYDKQIDLSTVDLKKLRVKELKKILDDWGETCKGCAEKSDYIRKINELMPKYAPKAASARTDL
